Results taken from publication PMC12361007 (AMB Express, 2025).

Target: human serum albumin (human, UniProt P02768 25-609)
Assay: BLI

B1: rhIL-22BP-ABD (recombinant human IL-22 binding protein fused to the albumin-binding domain ABD) (other)
chain: TQSTHESLKPQRVQFQSRNFHNILQWQPGRALTGNSSVYFVQYKIYGQRQWKNKEDCWGTQELSCDLTSETSDIQEPYYGRVRAASAGSYSEWSMTPRFTPWWETKIDPPVMNITQVNGSLLVILHAPNLPYRYQKEKNVSIEDYYELLYRVFIINNSLEKEQKVYEGAHRAVEIEALTPHSSYCVVAEIYQPMLDRRSQRSEERCVEIPLAEAKVLANRELDKYGVSDYYKNLINNAKTVEGVKALIDEILAALP
- Kd: 1150 nM
